Test results taken from US12077566 (dated 2024).

T1: N-cadherin (UniProt P19022 160-906, limits assumed)
T1 construct: whole, on cells
T1 sequence (looked up): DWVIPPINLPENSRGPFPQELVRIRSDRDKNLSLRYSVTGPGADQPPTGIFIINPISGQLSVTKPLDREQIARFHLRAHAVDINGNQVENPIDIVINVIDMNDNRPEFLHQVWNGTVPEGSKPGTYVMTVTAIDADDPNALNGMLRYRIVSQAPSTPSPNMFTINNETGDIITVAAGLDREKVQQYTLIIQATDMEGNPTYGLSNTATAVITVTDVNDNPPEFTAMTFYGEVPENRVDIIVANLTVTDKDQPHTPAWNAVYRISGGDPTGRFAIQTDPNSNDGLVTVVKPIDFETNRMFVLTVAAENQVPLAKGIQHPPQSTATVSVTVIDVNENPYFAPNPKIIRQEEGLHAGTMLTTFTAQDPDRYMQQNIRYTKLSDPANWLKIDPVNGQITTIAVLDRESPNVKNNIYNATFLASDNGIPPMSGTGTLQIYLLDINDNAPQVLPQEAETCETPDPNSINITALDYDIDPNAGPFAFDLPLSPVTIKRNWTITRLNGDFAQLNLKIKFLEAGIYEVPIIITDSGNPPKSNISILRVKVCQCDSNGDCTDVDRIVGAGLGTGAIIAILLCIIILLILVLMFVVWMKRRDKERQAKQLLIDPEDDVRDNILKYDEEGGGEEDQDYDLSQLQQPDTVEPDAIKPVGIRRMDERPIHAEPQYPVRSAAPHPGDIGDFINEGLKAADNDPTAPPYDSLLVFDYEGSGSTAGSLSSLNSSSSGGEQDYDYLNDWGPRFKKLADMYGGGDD


Assays:
N-cadherin = target: T1, N-cadherin; experiment: immunofluorescence co-localization on cells
LDLR = target: T2, LDLR (UniProt P01130 22-860, limits assumed); experiment: immunofluorescence co-localization on cells
T2 construct: whole, on cells
T2 sequence (P01130 22-860 limits assumed): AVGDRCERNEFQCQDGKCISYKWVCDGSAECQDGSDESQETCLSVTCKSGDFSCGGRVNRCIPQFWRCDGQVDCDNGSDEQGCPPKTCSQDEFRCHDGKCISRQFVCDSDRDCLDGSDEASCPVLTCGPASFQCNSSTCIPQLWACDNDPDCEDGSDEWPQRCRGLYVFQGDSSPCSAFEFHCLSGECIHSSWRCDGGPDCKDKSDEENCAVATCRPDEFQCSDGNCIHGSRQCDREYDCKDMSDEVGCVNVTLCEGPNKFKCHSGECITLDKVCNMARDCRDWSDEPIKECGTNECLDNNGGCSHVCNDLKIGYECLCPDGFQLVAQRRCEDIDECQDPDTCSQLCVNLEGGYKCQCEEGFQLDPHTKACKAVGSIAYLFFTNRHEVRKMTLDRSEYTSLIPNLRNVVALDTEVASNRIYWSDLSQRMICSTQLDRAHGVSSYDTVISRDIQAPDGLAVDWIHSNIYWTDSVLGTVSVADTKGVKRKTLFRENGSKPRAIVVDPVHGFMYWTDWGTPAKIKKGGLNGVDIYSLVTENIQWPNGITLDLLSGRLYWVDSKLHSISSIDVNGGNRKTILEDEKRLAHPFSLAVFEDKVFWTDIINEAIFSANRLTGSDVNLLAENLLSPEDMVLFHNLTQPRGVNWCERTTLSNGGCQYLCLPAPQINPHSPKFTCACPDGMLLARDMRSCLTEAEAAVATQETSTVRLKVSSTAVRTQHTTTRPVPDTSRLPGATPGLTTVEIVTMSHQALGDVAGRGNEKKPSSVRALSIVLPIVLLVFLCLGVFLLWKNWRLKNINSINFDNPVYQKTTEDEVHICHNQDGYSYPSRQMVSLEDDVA

[1] = target: T3, EGFR extracellular domain (with an amino acid sequence of 25-645) (human, UniProt P00533 25-645); experiment: SPR, Biacore T200; EGFR extracellular domain on CM5 chip, rLZ-8 protein as analyte
T3 construct: range 25-645; Coupled on a CM5 chip; also called epidermal growth factor receptor extracellular domain; ligand (on the chip)

[2] = target: T3, EGFR extracellular domain (with an …); experiment: SPR, Biacore T200; EGFR extracellular domain on CM5 chip
[3] = target: T3, EGFR extracellular domain (with an …); experiment: EGFR affinity test (SPR)

Row | binding result (N-cadherin) | binding result (LDLR) | Kd [1] [nM] | koff [1] [s⁻¹] | kon [1] [M⁻¹ s⁻¹] | fold increase of affinity against rLZ-8 [2] [times] | fold increase of affinity equilibrium constant against rLZ-8 [3] [times] | Binder
1 | no binding | no binding |  |  |  |  |  | recombinant immunoregulatory protein of Ganoderma lucidum (rLZ-8) (other, also called Lingzhi-8) MSDTALIFRLAWDVKKLSFDYTPNWGRGNPNNFIDTVTFPKVLTDKAYTYRVAVSGRNLGVKPSYAVESDGSQKVNFLEYNSGYGIADTNTIQVFVVDPDTNNDFIIAQWN
2 |  |  | 1240 | 0.000273 | 220 |  |  | rLZ-8 (K16A/K41A) (other, Alanine mutant of rLZ-8) MSDTALIFRLAWDVKALSFDYTPNWGRGNPNNFIDTVTFPAVLTDKAYTYRVAVSGRNLGVKPSYAVESDGSQKVNFLEYNSGYGIADTNTIQVFVVDPDTNNDFIIAQWN
3 |  |  | 8.63 | 0.000528 | 61200 |  |  | rLZ-8 (R9A) (other, Alanine mutant of rLZ-8) MSDTALIFALAWDVKKLSFDYTPNWGRGNPNNFIDTVTFPKVLTDKAYTYRVAVSGRNLGVKPSYAVESDGSQKVNFLEYNSGYGIADTNTIQVFVVDPDTNNDFIIAQWN
4 |  |  | 12.2 | 0.000431 | 35300 |  |  | rLZ-8 (K41D/K46E/K74E) (other, Mutant of rLZ-8) MSDTALIFRLAWDVKKLSFDYTPNWGRGNPNNFIDTVTFPDVLTDEAYTYRVAVSGRNLGVKPSYAVESDGSQEVNFLEYNSGYGIADTNTIQVFVVDPDTNNDFIIAQWN
5 |  |  | 9.35 | 0.000614 | 65700 |  |  | rLZ-8 (K46E/K74E) (other, Mutant of rLZ-8) MSDTALIFRLAWDVKKLSFDYTPNWGRGNPNNFIDTVTFPKVLTDEAYTYRVAVSGRNLGVKPSYAVESDGSQEVNFLEYNSGYGIADTNTIQVFVVDPDTNNDFIIAQWN
6 |  |  | 7.49 | 7.56e-05 | 10100 |  |  | rLZ-8 (L17K) (other, Surface potential mutant of rLZ-8) MSDTALIFRLAWDVKKKSFDYTPNWGRGNPNNFIDTVTFPKVLTDKAYTYRVAVSGRNLGVKPSYAVESDGSQKVNFLEYNSGYGIADTNTIQVFVVDPDTNNDFIIAQWN
7 |  |  | 489 | 0.00182 | 3720 |  |  | rLZ-8 (S18A) (other, Alanine mutant of rLZ-8) MSDTALIFRLAWDVKKLAFDYTPNWGRGNPNNFIDTVTFPKVLTDKAYTYRVAVSGRNLGVKPSYAVESDGSQKVNFLEYNSGYGIADTNTIQVFVVDPDTNNDFIIAQWN
8 |  |  | 1.53 | 0.000329 | 215000 | 6 |  | rLZ-8 (L17K/D70K) (other, Surface potential mutant of rLZ-8) MSDTALIFRLAWDVKKKSFDYTPNWGRGNPNNFIDTVTFPKVLTDKAYTYRVAVSGRNLGVKPSYAVESKGSQKVNFLEYNSGYGIADTNTIQVFVVDPDTNNDFIIAQWN
9 |  |  | 620 | 0.000743 | 1200 |  |  | rLZ-8 (D45A) (other, Alanine mutant of rLZ-8) MSDTALIFRLAWDVKKLSFDYTPNWGRGNPNNFIDTVTFPKVLTAKAYTYRVAVSGRNLGVKPSYAVESDGSQKVNFLEYNSGYGIADTNTIQVFVVDPDTNNDFIIAQWN
10 |  |  | 30600 | 0.00423 | 139 |  |  | rLZ-8 (K16A/S18A/K41A/D45A) (other, Alanine mutant of rLZ-8, made by the same fermentation and purification as rLZ-8) MSDTALIFRLAWDVKALAFDYTPNWGRGNPNNFIDTVTFPAVLTAKAYTYRVAVSGRNLGVKPSYAVESDGSQKVNFLEYNSGYGIADTNTIQVFVVDPDTNNDFIIAQWN
11 |  |  | 7.36 | 0.000432 | 58700 |  |  | rLZ-8 (D20H) (other, Surface potential mutant of rLZ-8) MSDTALIFRLAWDVKKLSFHYTPNWGRGNPNNFIDTVTFPKVLTDKAYTYRVAVSGRNLGVKPSYAVESDGSQKVNFLEYNSGYGIADTNTIQVFVVDPDTNNDFIIAQWN
12 |  |  | 2.25 | 0.000457 | 203000 | 2.3 | 4 | rLZ-8 (D70K) (other, Surface potential mutant of rLZ-8) MSDTALIFRLAWDVKKLSFDYTPNWGRGNPNNFIDTVTFPKVLTDKAYTYRVAVSGRNLGVKPSYAVESKGSQKVNFLEYNSGYGIADTNTIQVFVVDPDTNNDFIIAQWN
